US20130287807A1, “COMPOUNDS FOR TREATING SYMPTOMS ASSOCIATED WITH PARKINSON'S DISEASE” (priority 2008, published 2013)

How the values were obtained:
[1] = target: monoclonal antibody MV-001; assay: ELISA on peptide-BSA; code 2 = medium binding, OD halfmax 1:4000-20000
[2] = target: monoclonal antibody MV-002; assay: ELISA on peptide-BSA; code 3 = strong binding, OD halfmax 1:>320000

Binder	OD halfmax 1:X (dilution factor of the parental antibody at half-maximal OD) (dilutionfactor(1:x)) [1]	OD halfmax dilution factor of the parental antibody (1:X) (dilutionfactor(1:x)) [2]
AEFMHSVC [p4739]	4000 to 20000	–
GQIKFAQC [p4694]	–	> 320000
GQILFPVC [p4684]	–	> 320000
AYFPHTSC [p4751]	4000 to 20000	–
GEIRFALC [p4678]	–	> 320000
TGLMFKHC [p4736]	4000 to 20000	–
GEIWFEGC [p4680]	–	> 320000
GEIRFGSC [p4696]	–	> 320000
SAMRHSLC [p4732]	4000 to 20000	–
THQRLWFC [p4693]	–	> 320000
MLPFRHGC [p4731]	4000 to 20000	–
GQLKFPFC [p4690]	–	> 320000
SHQRLWFC [p4674]	–	> 320000
GEIQFGAC [p4699]	–	> 320000
HMRMYFEC [p4687]	–	> 320000
NDAKIVFC [p4667]	–	> 320000
LQFKHSTC [p4734]	4000 to 20000	–
GEMWFALC [p4671]	–	> 320000
GEIKFDHC [p4698]	–	> 320000
GELWFPC [p4673]	–	> 320000

Binder	OD halfmax 1:X (dilution factor of the parental antibody at half-maximal OD) (dilutionfactor(1:x)) [1]	OD halfmax dilution factor of the parental antibody (1:X) (dilutionfactor(1:x)) [2]
ATFRHSTC [p4735]	4000 to 20000	–
GMIVFPHC [p4679]	–	> 320000
GELFFPKC [p4685]	–	> 320000
GELYFRAC [p4677]	–	> 320000
HQKMIFAC [p4675]	–	> 320000
NELFKHFC [p4727]	4000 to 20000	–
HMRLFFNC [p4670]	–	> 320000
GDLKFPLC [p4683]	–	> 320000
SLMRHSSC [p4721]	4000 to 20000	–
SQYFPRPC [p4729]	4000 to 20000	–
GELQFPPC [p4672]	–	> 320000
GEILFGMC [p4689]	–	> 320000
GQIMFPRC [p4686]	–	> 320000
IGFRHDSC [p4742]	4000 to 20000	–
AEFSHWHC [p4737]	4000 to 20000	–
GEIYFERC [p4681]	–	> 320000
GQIQFPLC [p4697]	–	> 320000
GQIRFDHC [p4669]	–	> 320000
GEMQFFIC [p4676]	–	> 320000
